Measurements as given in PMC8169943.

What was measured:
[1] = molecular target: AdeS histidine kinase transmitter domain (DHp-CA) (Acinetobacter baumannii); assay: SAXS
[2] = molecular target: AdeS histidine kinase transmitter domain (DHp-CA) (Acinetobacter baumannii); assay: SEC
[3] = molecular target: AdeS full cytoplasmic domain (HAMP-DHp-CA) (Acinetobacter baumannii); assay: SAXS
[4] = molecular target: AdeS full cytoplasmic domain (HAMP-DHp-CA) (Acinetobacter baumannii); assay: SEC
purified protein = substrate: Nc1ncnc2c1ncn2[C@@H]1O[C@H](COP(=O)(O)OP(=O)(O)OP(=O)(O)O)[C@@H](O)[C@H]1O; assay: purified protein; conditions: autophosphorylation; hexameric cytoplasmic domain

Question: “AdeS histidine kinase transmitter domain (DHp-CA) (domain or fragment)” was tested. Which stoichiometry N [1] did it give?
Answer: The stoichiometry N was 2.

Question: What about the stoichiometry N [2] of the same molecule?
Answer: Its stoichiometry N is 2.

Question: What does the source list for “AdeS full cytoplasmic domain (HAMP-DHp-CA) (domain or fragment)”?
Answer: stoichiometry N [3]: 6; stoichiometry N [4]: 6

B1: AdeS cytoplasmic domain (HAMP-DHp-CA) (Acinetobacter baumannii) (protein)
chain: KRFIVPINFLAEAAKKISHGDLSARAYDNRIHFAEMSELLYNFNDMAQKLEVSVKNAQVWNAAIAHELRTPITILQGRLQGIIDGVFKPDEVLFKSLLNQVEVLSHLVEDLRTLSLVENQQLRLNYELFDFKAVVEKVLKAFEDRLDQAKLVPELDLTSTPVYCDRRRIEQVLIALIDNAIRYSHAGKLKISSEVVSQNWILKIEDEGPGIATEFQDDLFKPFFRLEESRNKEFGGTGLGLAVVHAIIVALKGTIQYSNQGSKSIFTIKISMNN
Question: Which Km (purified protein) does the source give for B1 here?
Answer: The Km was 5.25 ± 0.20 µM.
